Measured values published in paper PMC7326016, “Structural Studies of Glutamate Dehydrogenase (Isoform 1) From Arabidopsis thaliana, an Important Enzyme at the Branch-Point Between Carbon and Nitrogen Metabolism” (Frontiers in Plant Science, 2020).

Target: the molecule itself
Assay: crystal structure; two crystal structures of AtGDH1 (apo, 2.59 Å; complex with NAD+, 2.03 Å; 2OG in one subunit of the latter); one homohexamer in the asymmetric unit, space group P212121; inter-subunit contacts analysed with PISA

B1: Glutamate dehydrogenase 1 from Arabidopsis thaliana (AtGDH1), homohexamer of α subunits (enzyme, A. thaliana, UniProt Q43314 1-411, looked up)
chain: MNALAATNRNFKLAARLLGLDSKLEKSLLIPFREIKVECTIPKDDGTLASFVGFRVQHDNARGPMKGGIRYHPEVDPDEVNALAQLMTWKTAVAKIPYGGAKGGIGCDPSKLSISELERLTRVFTQKIHDLIGIHTDVPAPDMGTGPQTMAWILDEYSKFHGYSPAVVTGKPIDLGGSLGRDAATGRGVMFGTEALLNEHGKTISGQRFVIQGFGNVGSWAAKLISEKGGKIVAVSDITGAIKNKDGIDIPALLKHTKEHRGVKGFDGADPIDPNSILVEDCDILVPAALGGVINRENANEIKAKFIIEAANHPTDPDADEILSKKGVVILPDIYANSGGVTVSYFEWVQNIQGFMWEEEKVNDELKTYMTRSFKDLKEMCKTHSCDLRMGAFTLGVNRVAQATILRGWGA
notes: Glutamate dehydrogenase 1 (AtGDH1, α subunit), Arabidopsis thaliana ecotype Col-0, locus At5g18170.1, UniProt Q43314; Cloned into pMCSG68; the His tag was cut off with TEV protease; also called glutamate dehydrogenase (isoform 1); source: E. coli BL21-Gold (DE3), purified (HisTrap, TEV cleavage, second HisTrap, Superdex 200 SEC)
stoichiometry N: 6
